Patent US12187772 (Regeneron, dated 2025)

Molecular target: T1, IL10 receptor (IL10 receptor subunit alpha IL10Ra and beta subunit IL10Rb) on Ramos/STAT3-Luc and … (UniProt Q13651 22-578; Q08334 20-325, limits assumed)
T1 sequence (looked up) 1: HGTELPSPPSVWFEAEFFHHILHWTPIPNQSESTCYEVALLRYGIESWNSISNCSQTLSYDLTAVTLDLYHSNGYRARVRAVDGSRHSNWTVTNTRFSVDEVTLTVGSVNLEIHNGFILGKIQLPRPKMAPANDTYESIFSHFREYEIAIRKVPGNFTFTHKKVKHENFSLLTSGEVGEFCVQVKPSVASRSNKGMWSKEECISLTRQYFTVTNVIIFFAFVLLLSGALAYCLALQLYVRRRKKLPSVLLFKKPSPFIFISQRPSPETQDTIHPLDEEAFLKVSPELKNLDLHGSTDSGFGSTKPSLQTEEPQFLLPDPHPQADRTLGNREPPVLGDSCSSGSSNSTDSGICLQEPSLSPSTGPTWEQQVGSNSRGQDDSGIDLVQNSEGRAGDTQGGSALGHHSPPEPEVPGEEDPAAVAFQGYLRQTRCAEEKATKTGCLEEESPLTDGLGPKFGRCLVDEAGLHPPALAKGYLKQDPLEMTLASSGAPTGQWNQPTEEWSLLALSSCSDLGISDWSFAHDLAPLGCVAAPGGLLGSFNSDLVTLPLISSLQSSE
T1 sequence (looked up) 2: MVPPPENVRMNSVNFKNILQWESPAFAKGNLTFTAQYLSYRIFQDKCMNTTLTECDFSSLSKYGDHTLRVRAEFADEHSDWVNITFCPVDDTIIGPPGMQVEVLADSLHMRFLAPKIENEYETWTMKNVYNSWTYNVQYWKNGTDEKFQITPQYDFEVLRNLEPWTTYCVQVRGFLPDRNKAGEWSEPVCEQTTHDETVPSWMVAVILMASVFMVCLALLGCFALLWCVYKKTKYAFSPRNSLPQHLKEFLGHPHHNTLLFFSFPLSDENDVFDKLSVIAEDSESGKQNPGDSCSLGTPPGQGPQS
Assay: cell-based or functional assay

B1: IL10M5 (Fc-1XG4S-hIL10; Fc is IgG4s) (Fc fusion)
chain: ESKYGPPCPPCPAPPVAGPSVFLFPPKPKDTLMISRTPEVTCVVVDVSQEDPEVQFNWYVDGVEVHNAKTKPREEQFNSTYRVVSVLTVLHQDWLNGKEYKCKVSNKGLPSSIEKTISKAKGQPREPQVYTLPPSQEEMTKNQVSLTCLVKGFYPSDIAVEWESNGQPENNYKTTPPVLDSDGSFFLYSRLTVDKSRWQEGNVFSCSVMHEALHNHYTQKSLSLSLGKGGGGSSPGQGTQSENSCTHFPGNLPNMLRDLRDAFSRVKTFFQMKDQLDNLLLKESLLEDFKGYLGCQALSEMIQFYLEEVMPQAENQDPDIKAHVNSLGENLKTLRLRLRRCHRFLPCENKSKAVEQVKNAFNKLQEKGIYKAMSEFDIFINYIEAYMTMKIRN
  EC50 of luciferase activity, Ramos/Stat3-Luc reporter cells: 0.127 nM
  EC50 of luciferase activity, TF-1/Stat3-Luc reporter cells: 0.146 nM
  Fold Induction of luciferase activity, Ramos/Stat3-Luc reporter cells: 3.81 fold
  Fold Induction of luciferase activity, TF-1/Stat3-Luc reporter cells: 3.4 fold

B2: IL10M4 (Fc-2XG4S-hIL10; Fc is IgG4s) (Fc fusion)
chain: ESKYGPPCPPCPAPPVAGPSVFLFPPKPKDTLMISRTPEVTCVVVDVSQEDPEVQFNWYVDGVEVHNAKTKPREEQFNSTYRVVSVLTVLHQDWLNGKEYKCKVSNKGLPSSIEKTISKAKGQPREPQVYTLPPSQEEMTKNQVSLTCLVKGFYPSDIAVEWESNGQPENNYKTTPPVLDSDGSFFLYSRLTVDKSRWQEGNVFSCSVMHEALHNHYTQKSLSLSLGKGGGGSGGGGSSPGQGTQSENSCTHFPGNLPNMLRDLRDAFSRVKTFFQMKDQLDNLLLKESLLEDFKGYLGCQALSEMIQFYLEEVMPQAENQDPDIKAHVNSLGENLKTLRLRLRRCHRFLPCENKSKAVEQVKNAFNKLQEKGIYKAMSEFDIFINYIEAYMTMKIRN
  EC50 of luciferase activity, Ramos/Stat3-Luc reporter cells: 0.115 nM
  EC50 of luciferase activity, TF-1/Stat3-Luc reporter cells: 0.138 nM
  Fold Induction of luciferase activity, Ramos/Stat3-Luc reporter cells: 4.06 fold
  Fold Induction of luciferase activity, TF-1/Stat3-Luc reporter cells: 3.78 fold

B3: IL10M6 (hIL10-2XG4S-Fc; Fc is IgG4s) (Fc fusion)
chain: SPGQGTQSENSCTHFPGNLPNMLRDLRDAFSRVKTFFQMKDQLDNLLLKESLLEDFKGYLGCQALSEMIQFYLEEVMPQAENQDPDIKAHVNSLGENLKTLRLRLRRCHRFLPCENKSKAVEQVKNAFNKLQEKGIYKAMSEFDIFINYIEAYMTMKIRNGGGGSGGGGSESKYGPPCPPCPAPPVAGPSVFLFPPKPKDTLMISRTPEVTCVVVDVSQEDPEVQFNWYVDGVEVHNAKTKPREEQFNSTYRVVSVLTVLHQDWLNGKEYKCKVSNKGLPSSIEKTISKAKGQPREPQVYTLPPSQEEMTKNQVSLTCLVKGFYPSDIAVEWESNGQPENNYKTTPPVLDSDGSFFLYSRLTVDKSRWQEGNVFSCSVMHEALHNHYTQKSLSLSLGK
  EC50 of luciferase activity, Ramos/Stat3-Luc reporter cells: 0.127 nM
  EC50 of luciferase activity, TF-1/Stat3-Luc reporter cells: 0.361 nM
  Fold Induction of luciferase activity, Ramos/Stat3-Luc reporter cells: 3.02 fold
  Fold Induction of luciferase activity, TF-1/Stat3-Luc reporter cells: 2.66 fold
